Laboratory results from article PMC6810650 (Cell, 2019).

Tests used:
GST-Ubx5 = molecular target: T1, GST-Ubx5 (S. cerevisiae, UniProt Q06682 1-500); assay: pull-down
T1 sequence (looked up): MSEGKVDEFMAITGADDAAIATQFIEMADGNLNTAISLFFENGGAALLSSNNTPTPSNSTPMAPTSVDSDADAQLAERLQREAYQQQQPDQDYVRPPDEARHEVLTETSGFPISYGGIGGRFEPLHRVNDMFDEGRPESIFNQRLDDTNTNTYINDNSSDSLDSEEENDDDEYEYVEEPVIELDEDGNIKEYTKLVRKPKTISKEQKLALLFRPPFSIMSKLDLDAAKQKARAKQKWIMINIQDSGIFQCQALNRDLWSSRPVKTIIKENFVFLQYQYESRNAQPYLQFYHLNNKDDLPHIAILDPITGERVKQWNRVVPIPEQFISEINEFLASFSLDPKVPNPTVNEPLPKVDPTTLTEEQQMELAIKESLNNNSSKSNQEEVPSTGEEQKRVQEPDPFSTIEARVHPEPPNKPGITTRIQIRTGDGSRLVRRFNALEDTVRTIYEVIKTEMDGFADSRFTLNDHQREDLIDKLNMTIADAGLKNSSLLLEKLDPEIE

6His-PUX7 = molecular target: T2, 6His-PUX7 (Arabidopsis thaliana, UniProt Q94JZ8 1-468); assay: ITC
T2 sequence (looked up): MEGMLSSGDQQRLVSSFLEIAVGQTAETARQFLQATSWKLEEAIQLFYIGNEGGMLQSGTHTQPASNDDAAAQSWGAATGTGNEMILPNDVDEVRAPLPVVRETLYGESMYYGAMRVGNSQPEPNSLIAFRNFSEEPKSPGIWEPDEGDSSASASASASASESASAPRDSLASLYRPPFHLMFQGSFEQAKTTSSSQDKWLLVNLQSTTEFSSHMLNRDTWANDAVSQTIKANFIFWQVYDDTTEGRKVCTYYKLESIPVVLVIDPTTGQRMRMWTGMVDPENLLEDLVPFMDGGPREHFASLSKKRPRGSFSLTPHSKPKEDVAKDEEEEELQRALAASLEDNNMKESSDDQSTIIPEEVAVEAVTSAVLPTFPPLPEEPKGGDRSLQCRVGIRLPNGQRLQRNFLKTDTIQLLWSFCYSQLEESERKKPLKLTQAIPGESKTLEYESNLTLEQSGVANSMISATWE

6His-PUX13 = molecular target: T3, 6His-PUX13 (Arabidopsis thaliana, UniProt Q9C5G7 1-525); assay: ITC
T3 sequence (looked up): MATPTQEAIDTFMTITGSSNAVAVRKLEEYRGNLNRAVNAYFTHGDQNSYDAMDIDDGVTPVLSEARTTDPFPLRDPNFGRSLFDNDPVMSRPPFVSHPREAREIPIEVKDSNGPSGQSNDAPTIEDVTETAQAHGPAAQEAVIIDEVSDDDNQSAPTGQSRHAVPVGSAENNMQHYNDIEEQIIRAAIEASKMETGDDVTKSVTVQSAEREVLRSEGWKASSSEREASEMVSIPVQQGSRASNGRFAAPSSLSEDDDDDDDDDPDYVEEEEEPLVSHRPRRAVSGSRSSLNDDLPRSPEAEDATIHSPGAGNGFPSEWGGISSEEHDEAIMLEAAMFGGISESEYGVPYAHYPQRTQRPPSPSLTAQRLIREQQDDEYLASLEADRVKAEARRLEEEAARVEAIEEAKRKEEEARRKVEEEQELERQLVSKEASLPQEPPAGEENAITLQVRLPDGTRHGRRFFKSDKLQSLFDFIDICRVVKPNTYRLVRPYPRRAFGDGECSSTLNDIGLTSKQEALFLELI

6His-PUX9 = molecular target: T4, 6His-PUX9 (Arabidopsis thaliana, UniProt Q4V3D3 1-469); assay: ITC
T4 sequence (looked up): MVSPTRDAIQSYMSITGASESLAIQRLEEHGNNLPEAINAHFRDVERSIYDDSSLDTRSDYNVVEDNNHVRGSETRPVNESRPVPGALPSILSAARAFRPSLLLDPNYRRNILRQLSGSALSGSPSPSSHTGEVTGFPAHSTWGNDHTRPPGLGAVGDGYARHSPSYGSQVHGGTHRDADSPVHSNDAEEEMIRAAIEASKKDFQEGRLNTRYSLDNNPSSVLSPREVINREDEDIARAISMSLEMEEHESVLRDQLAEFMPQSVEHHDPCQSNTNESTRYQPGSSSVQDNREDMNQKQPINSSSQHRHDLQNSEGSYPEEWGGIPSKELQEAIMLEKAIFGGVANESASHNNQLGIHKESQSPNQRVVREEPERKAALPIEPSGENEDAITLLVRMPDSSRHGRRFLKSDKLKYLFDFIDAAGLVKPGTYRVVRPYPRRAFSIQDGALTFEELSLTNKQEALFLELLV

6His-PUX8 = molecular target: T5, 6His-PUX8 (Arabidopsis thaliana, UniProt F4JPR7 1-564); assay: ITC
T5 sequence (looked up): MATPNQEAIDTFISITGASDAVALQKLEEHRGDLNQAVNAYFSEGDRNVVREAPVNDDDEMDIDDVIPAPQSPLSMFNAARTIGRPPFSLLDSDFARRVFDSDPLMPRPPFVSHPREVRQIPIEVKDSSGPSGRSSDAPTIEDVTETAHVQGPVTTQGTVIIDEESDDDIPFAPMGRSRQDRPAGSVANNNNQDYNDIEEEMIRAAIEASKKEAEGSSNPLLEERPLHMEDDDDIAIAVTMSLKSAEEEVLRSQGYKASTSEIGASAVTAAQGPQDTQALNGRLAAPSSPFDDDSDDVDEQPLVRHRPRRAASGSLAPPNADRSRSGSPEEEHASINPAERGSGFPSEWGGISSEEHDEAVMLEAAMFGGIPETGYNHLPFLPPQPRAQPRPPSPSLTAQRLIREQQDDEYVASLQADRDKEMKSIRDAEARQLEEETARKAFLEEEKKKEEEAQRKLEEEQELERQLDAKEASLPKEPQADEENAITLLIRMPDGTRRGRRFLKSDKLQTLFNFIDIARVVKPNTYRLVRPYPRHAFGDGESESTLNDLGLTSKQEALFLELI

[1] = molecular target: T6, Arabidopsis DSK2a (pull-down of Figure S1E) (Arabidopsis thaliana, UniProt Q9SII9 1-538); assay: pull-down
T6 sequence (looked up): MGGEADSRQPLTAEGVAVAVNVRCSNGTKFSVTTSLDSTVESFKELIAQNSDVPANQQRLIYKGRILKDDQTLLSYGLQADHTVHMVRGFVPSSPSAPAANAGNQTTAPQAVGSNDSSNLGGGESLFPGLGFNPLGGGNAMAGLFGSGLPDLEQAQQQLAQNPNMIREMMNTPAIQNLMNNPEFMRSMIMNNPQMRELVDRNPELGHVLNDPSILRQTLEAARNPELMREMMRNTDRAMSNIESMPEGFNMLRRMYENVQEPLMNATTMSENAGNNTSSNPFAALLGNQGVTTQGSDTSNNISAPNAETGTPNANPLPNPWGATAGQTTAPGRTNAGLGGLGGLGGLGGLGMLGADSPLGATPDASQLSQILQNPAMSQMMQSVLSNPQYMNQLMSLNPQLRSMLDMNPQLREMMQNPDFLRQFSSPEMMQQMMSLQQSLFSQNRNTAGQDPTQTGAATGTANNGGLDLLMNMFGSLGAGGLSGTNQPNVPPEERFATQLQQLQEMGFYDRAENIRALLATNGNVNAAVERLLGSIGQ

GST-PUX13 = molecular target: T7, GST-PUX13 (Arabidopsis thaliana, UniProt Q9C5G7 1-525); assay: pull-down
T7 sequence (looked up): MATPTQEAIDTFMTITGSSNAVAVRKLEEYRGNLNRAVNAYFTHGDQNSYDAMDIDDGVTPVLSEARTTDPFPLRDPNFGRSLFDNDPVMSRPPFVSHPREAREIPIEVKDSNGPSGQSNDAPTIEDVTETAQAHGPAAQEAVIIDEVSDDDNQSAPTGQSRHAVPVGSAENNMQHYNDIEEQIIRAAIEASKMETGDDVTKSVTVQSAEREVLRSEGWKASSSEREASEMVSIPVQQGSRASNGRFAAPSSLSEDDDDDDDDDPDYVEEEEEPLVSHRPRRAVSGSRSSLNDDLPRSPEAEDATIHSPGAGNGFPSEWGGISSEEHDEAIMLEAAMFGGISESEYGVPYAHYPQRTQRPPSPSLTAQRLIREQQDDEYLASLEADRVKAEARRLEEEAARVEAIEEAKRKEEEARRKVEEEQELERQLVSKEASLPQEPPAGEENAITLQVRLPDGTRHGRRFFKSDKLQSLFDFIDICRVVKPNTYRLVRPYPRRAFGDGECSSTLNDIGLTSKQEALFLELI

GST-PUX8 = molecular target: T8, GST-PUX8 (Arabidopsis thaliana, UniProt F4JPR7 1-564); assay: pull-down
T8 sequence (looked up): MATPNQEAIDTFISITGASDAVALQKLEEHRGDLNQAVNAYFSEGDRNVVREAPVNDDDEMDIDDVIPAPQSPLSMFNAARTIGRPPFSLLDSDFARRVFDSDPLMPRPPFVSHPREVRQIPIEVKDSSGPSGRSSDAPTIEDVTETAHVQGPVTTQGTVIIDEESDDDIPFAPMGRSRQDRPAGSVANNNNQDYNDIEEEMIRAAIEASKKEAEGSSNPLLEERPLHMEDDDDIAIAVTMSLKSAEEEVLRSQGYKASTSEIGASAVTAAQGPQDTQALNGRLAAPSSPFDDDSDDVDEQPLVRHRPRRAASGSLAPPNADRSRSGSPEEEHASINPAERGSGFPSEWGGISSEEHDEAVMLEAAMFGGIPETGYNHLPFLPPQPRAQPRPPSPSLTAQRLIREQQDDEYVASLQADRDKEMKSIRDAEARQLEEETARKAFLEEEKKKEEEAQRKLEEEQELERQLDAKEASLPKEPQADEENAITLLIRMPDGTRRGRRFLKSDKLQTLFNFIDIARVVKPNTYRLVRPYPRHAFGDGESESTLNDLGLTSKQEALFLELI

GST-PUX7 = molecular target: T9, GST-PUX7 (Arabidopsis thaliana, UniProt Q94JZ8 1-468); assay: pull-down
T9 sequence (looked up): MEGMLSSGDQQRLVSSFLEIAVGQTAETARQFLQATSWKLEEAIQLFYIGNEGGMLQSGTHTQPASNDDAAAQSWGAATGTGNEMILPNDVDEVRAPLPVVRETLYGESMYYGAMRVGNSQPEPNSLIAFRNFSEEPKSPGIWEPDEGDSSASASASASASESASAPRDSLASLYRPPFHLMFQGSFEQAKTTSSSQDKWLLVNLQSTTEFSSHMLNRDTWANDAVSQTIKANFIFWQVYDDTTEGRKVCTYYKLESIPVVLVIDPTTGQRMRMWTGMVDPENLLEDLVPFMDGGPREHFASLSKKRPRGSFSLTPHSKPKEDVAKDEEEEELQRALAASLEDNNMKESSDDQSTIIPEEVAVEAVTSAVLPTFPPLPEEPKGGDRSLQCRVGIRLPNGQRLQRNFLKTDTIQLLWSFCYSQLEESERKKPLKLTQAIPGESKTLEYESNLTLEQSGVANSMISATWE

GST-PUX9 = molecular target: T10, GST-PUX9 (Arabidopsis thaliana, UniProt Q4V3D3 1-469); assay: pull-down
T10 sequence (looked up): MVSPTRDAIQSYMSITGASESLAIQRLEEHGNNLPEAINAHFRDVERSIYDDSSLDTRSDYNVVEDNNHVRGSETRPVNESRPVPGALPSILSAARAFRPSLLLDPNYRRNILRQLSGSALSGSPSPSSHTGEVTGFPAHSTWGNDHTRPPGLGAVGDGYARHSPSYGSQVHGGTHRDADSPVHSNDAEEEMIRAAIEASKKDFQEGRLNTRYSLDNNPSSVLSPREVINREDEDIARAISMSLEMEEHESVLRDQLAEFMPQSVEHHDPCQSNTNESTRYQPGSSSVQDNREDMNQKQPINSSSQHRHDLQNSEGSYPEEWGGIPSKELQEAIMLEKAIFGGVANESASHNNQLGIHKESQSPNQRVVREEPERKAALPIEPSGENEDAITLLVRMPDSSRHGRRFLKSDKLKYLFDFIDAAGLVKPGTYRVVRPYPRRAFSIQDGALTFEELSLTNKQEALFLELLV

[2] = molecular target: T11, GST-RPN10 (amino acids 201 to 386) (Arabidopsis thaliana, UniProt P55034 201-386); assay: pull-down
T11 sequence (looked up): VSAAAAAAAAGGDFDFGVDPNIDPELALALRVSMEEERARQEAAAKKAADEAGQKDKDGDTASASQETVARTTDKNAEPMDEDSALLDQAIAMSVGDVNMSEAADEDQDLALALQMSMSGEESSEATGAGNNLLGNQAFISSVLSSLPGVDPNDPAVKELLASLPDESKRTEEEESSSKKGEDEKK

HA-DSK2a = molecular target: T12, HA-DSK2a (Arabidopsis thaliana, UniProt Q9SII9 1-538); assay: pull-down
T12 sequence (looked up): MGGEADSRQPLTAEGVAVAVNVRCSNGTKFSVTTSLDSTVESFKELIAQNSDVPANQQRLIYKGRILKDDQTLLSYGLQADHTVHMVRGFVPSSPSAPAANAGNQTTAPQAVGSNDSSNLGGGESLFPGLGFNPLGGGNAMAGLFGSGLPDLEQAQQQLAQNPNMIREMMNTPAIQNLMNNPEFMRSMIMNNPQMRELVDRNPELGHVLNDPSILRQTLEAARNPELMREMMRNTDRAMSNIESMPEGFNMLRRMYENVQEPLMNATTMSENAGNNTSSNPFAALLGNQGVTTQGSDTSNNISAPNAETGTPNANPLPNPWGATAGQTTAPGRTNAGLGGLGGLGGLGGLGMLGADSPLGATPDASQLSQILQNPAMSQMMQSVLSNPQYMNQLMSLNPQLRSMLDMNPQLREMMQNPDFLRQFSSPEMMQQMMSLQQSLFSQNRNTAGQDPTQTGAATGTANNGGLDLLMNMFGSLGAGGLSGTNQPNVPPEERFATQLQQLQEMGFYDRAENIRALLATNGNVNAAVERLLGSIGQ

Measured: binding result

B1: 6His-Atg8 (yeast) (natural protein, S. cerevisiae, UniProt P38182 1-116, looked up)
chain: MKSTFKSEYPFEKRKAESERIADRFKNRIPVICEKAEKSDIPEIDKRKYLVPADLTVGQFVYVIRKRIMLPPEKAIFIFVNDTLPPTAALMSAIYQEHKDKDGFLYVTYSGENTFG
binds: GST-Ubx5

B2: 6His-ATG8e (natural protein, Arabidopsis thaliana, UniProt Q8S926 1-118, looked up)
chain: MNKGSIFKMDNDFEKRKAEAGRIREKYPDRIPVIVEKAEKSEVPNIDKKKYLVPSDLTVGQFVYVIRKRIKLSAEKAIFIFVDNVLPPTGELMSSVYEDKKDEDGFLYITYSGENTFG
not listed: GST-Ubx5
binds: all other assays above
